Data as given in US10905748B2, “Ovotransferrin treatment for the reproductive tract” (Vets Plus, Inc., priority 2018, dated 2021).

What was measured:
[1] = tested on: metritis causing bacteria; test: Agar well zone of inhibition on bacteria cultured from metritis discharge; format: cell-based, bacteria from the discharge of a cow diagnosed with metritis; conditions: 24 hour diffusion at 37° C.
Method: A cow that was diagnosed with metritis, as evidenced by elevated temperature, elevated total leukocyte count, raised tails, and foul smelling discharge, had the discharge cultured onto blood agar plates. Bacteria colonies with different morphology from the metritis discharge that grew were selected and placed into 20 ml liquid nutrient broth in culture tubes at a defined amount and incubated overnight at 37° C. The bacteria in the liquid nutrient broth was then used to create agar plates by mixing 1 ml of nutrient broth containing bacteria with 15 ml of warm agar and poured into petri dishes and incubated for 24-48 hrs. at 37° C. Then, holes were punched into the agar and a dose response of previously purified ovotransferrin at 0%, 10% and 25% w/v in sterile water was placed in the holes. The plates were allowed to diffuse for 24 hour at 37° C. to check for zone of inhibition. Zones of inhibition were visualized by clearings in the agar where no bacteria grew. […] This is consistent with ovotransferrin in killing the bacteria that cause metritis. It was concluded that ovotransferrin of the invention is able to inhibit growth of the metritis causing bacteria in a dose dependent manner.

[2] = tested on: infectious metritis in cows; test: Clinical trial of ovotransferrin bolus to prevent infectious metritis in postpartum cows; format: in vivo, cow; conditions: examined after 30 days
Method: (§1) A clinical trial was conducted to examine efficacy of the invention to prevent infectious metritis in cows. 10 gram of purified Ovotransferrin was mixed with 10 grams of binding agent to create a 20 gram total bolus with dimensions of 2 cm wide and 6 cm long. For N=5 cows from a herd known to have the standard metritis rate were selected that were 3 hours postpartum. Two boluses were inserted into the uterus and allowed to dissolve. The cows were monitor daily for any obvious signs of metritis. After 30 days, the cows were examined in detail for clinical signs of metritis. […] It would be expected that at least one of the cows of this group would have had metritis 10-12 days without the use of the invention.
as §1, with “A single bolus was” for “Two boluses were”
as §1, with “cows. 2.5” for “cows. 10”, “with 17.5” for “with 10”, “For N=7” for “For N=5”
A clinical trial was conducted to examine efficacy of the invention to prevent infectious metritis in cows. 2.5 gram of purified Ovotransferrin was mixed with 17.5 grams of binding agent to create a 20 gram total bolus with dimensions of 2 cm wide and 6 cm long. For N=7 cows from a herd known to have the standard metritis rate were selected that were 3 hours postpartum. A single bolus was inserted into the uterus and allowed to dissolve. The cows were monitor daily for any obvious signs of metritis. After 30 days, the cows were examined in detail for clinical signs of metritis. […]

[3] = tested on: Cows with clinical endometritis; test: Intrauterine infusion of ovotransferrin solution in cows with clinical endometritis; format: in vivo, cow
From the text: Cows with clinical endometritis (n=4) were identified based on the clinical signs, rectal temperature, score of mucus characteristics, total polymorph numbers, pH of uterine discharge, uterine swab analysis, and bacterial culture, along with healthy cows (control, n=4). Two hundred ml of a 5% ovotransferrin solution of the invention were infused intrauterine with a special pipette attached to a pump in the treatment group. Seven days later, all the above parameters were reexamined. Total number of polymorph in uterine discharge was counted using a hemocytometer, stained with Giemsa and Gram stain.
(§2) Cows with clinical endometritis (n=3) were identified based on the clinical signs, rectal temperature, score of mucus characteristics, total polymorph numbers, pH of uterine discharge, uterine swab analysis, and bacterial culture, along with healthy cows (control, n=3. Two hundred ml of a 5% ovotransferrin solution of the invention were infused intrauterine with a special pipette attached to a pump in the treatment group. Seven days later, all the above parameters were reexamined.
as §2, with “(n=4)” for “(n=3)”, “n=4).” for “n=3.”, “reexamined. Mucus score was 6 times higher in metritis affected cows than control values. […] This indicates the invention was efficacious for treatment metritis in cows.” for “reexamined.”
Cows with clinical endometritis (n=4) were identified based on the clinical signs, rectal temperature, score of mucus characteristics, total polymorph numbers, pH of uterine discharge, uterine swab analysis, and bacterial culture, along with healthy cows (control, n=4). Two hundred ml of a 5% ovotransferrin solution of the invention were infused intrauterine with a special pipette attached to a pump in the treatment group. Seven days later, all the above parameters were reexamined.

B1: ovotransferrin (protein, UniProt P02789 20-705, looked up)
Ovotransferrin: APPKSVIRWCTISSPEEKKCNNLRDLTQQERISLTCVQKATYLDCIKAIANNEADAISLDGGQAFEAGLAPYKLKPIAAEVYEHTEGSTTSYYAVAVVKKGTEFTVNDLQGKTSCHTGLGRSAGWNIPIGTLLHRGAIEWEGIESGSVEQAVAKFFSASCVPGATIEQKLCRQCKGDPKTKCARNAPYSGYSGAFHCLKDGKGDVAFVKHTTVNENAPDQKDEYELLCLDGSRQPVDNYKTCNWARVAAHAVVARDDNKVEDIWSFLSKAQSDFGVDTKSDFHLFGPPGKKDPVLKDLLFKDSAIMLKRVPSLMDSQLYLGFEYYSAIQSMRKDQLTPSPRENRIQWCAVGKDEKSKCDRWSVVSNGDVECTVVDETKDCIIKIMKGEADAVALDGGLVYTAGVCGLVPVMAERYDDESQCSKTDERPASYFAVAVARKDSNVNWNNLKGKKSCHTAVGRTAGWVIPMGLIHNRTGTCNFDEYFSEGCAPGSPPNSRLCQLCQGSGGIPPEKCVASSHEKYFGYTGALRCLVEKGDVAFIQHSTVEENTGGKNKADWAKNLQMDDFELLCTDGRRANVMDYRECNLAEVPTHAVVVRPEKANKIRDLLERQEKRFGVNGSEKSKFMMFESQNKDLLFKDLTKCLFKVREGTTYKEFLGDKFYTVISSLKTCNPSDILQMCSFLEGK
notes: 12 to 13% of total egg white protein
- zone of inhibition ([1]; 10% w/v ovotransferrin in sterile water in agar wells): a zone of inhibition was seen
- zone of inhibition ([1]; 25% w/v ovotransferrin in sterile water in agar wells): a larger zone
- clinical signs of metritis ([2]; single bolus of 2.5 g ovotransferrin in uterus 3 hours postpartum, N=7): None of the cows had any signs of metritis
- clinical signs of metritis ([2]; single bolus of 10 g ovotransferrin in uterus 3 hours postpartum, N=5): None of the cows had any signs of metritis
- clinical signs of metritis ([2]; two boluses of 2.5 g ovotransferrin (5 grams) in uterus 3 hours postpartum, N=7): None of the cows had any signs of metritis
- clinical signs of metritis ([2]; two boluses of 10 g ovotransferrin (20 grams) in uterus 3 hours postpartum, N=5): None of the cows had any signs of metritis
- Mean pH of uterine discharge ([3]; one week after intrauterine infusion of 200 ml 5% solution, 8.8 before treatment, healthy control 6.8, n=3, p<0.05, FIG. 2): 7.0
- Rectal temperature ([3]; one week after intrauterine infusion of 200 ml 5% solution, >40° C. before treatment, n=4, FIG. 1): 38.5 °C
- Mucus score ([3]; seven days after intrauterine infusion of 200 ml 5% solution, 6 times control before treatment, n=4, FIG. 3): statistically significant decrease
- Total number of polymorph in uterine discharge ([3]; seven days after intrauterine infusion of 200 ml 5% solution, more than 70 times control before treatment, n=4, FIG. 4): statistically significantly (p<0.01) reduced (2 and 4 times higher, respectively, compared with control)
